Experimental data reported in US20230322953A1 (HARBOUR BIOMED SHANGHAI, published 2023).
Positions count from the first letter of the chain named.

T1: human BCMA (human, UniProt Q02223 1-184)
T1 construct: whole, on cells; also called hBCMA; TNFRSF17
T1 sequence (looked up): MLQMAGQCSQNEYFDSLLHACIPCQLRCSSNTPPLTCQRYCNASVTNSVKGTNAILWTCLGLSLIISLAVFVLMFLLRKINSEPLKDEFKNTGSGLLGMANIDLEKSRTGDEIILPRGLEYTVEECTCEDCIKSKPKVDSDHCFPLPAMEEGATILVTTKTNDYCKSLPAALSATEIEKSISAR

B1: PR003867 (bispecific antibody, human IgG1, lambda, L234A L235A)
light: QAVVTQEPSLTVSPGGTVTLTCRSSTGAVTTSNYANWVQQKPGQAPRGLIGGTNKRAPWTPARFSGSLLGDKAALTLLGAQPEDEAEYFCALWYSNLWVFGGGTKLTVLGQPKAAPSVTLFPPSSEELQANKATLVCLISDFYPGAVTVAWKADSSPVKAGVETTTPSKQSNNKYAASSYLSLTPEQWKSHRSYSCQVTHEGSTVEKTVAPTECS
heavy: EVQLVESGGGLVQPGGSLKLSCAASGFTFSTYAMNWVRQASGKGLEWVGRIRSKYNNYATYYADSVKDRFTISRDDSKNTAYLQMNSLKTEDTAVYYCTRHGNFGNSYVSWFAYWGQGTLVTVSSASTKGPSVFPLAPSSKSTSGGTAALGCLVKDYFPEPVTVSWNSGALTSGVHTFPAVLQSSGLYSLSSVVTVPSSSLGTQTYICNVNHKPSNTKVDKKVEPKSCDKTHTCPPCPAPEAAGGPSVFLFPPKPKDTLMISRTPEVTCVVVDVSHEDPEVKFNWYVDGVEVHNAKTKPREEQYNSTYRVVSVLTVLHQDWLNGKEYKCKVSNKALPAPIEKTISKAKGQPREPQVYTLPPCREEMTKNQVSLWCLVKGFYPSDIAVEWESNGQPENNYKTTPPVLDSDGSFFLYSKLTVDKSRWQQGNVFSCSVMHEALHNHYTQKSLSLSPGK
chain: EVQLVETGGGLIQPGGSLRLSCAASGFTVSDNYMTWVRQAPGKGLEWVSVIFSGGKTYYADSVKGRFTISRDNAKNTLYLQMNSLRAEDTALYYCARRNYDDTRGTDVFDIWGQGTMVTVSSASEPKSSDKTHTCPPCPAPEAAGGPSVFLFPPKPKDTLMISRTPEVTCVVVDVSHEDPEVKFNWYVDGVEVHNAKTKPREEQYNSTYRVVSVLTVLHQDWLNGKEYKCKVSNKALPAPIEKTISKAKGQPREPQVCTLPPSREEMTKNQVSLSCAVKGFYPSDIAVEWESNGQPENNYKTTPPVLDSDGSFFLVSKLTVDKSRWQQGNVFSCSVMHEALHNHYTQKSLSLSPGK
notes: BCMAxCD3, Fab-Fc-VH (structure 11); CD3 Fab of PR003886, BCMA VH of PR004559; IgG1 knob/hole, LALA
B2: PR001994 (bispecific antibody, human IgG1, kappa, L234A L235A)
chain 1: EVQLLESGGGLVQPGGSLRLSCAASGFTFNTYAMNWVRQAPGKGLEWVSRIRSKYNNYATYYADSVKDRFTISRDDSKSTLYLQMNSLRAEDTAVYYCVRHGNFGNSYVSWFAYWGQGTLVTVSSRTVAAPSVFIFPPSDEQLKSGTASVVCLLNNFYPREAKVQWKVDNALQSGNSQESVTEQDSKDSTYSLSSTLTLSKADYEKHKVYACEVTHQGLSSPVTKSFNRGEC
chain 2: QAVVTQEPSLTVSPGGTVTLTCRSSTGAVTTSNYANWVQQKPGQAPRGLIGGTNKRAPWTPARFSGSLLGDKAALTLLGAQPEDEAEYFCALWYSNLWVFGGGTKLTVLSSASTKGPSVFPLAPSSKSTSGGTAALGCLVKDYFPEPVTVSWNSGALTSGVHTFPAVLQSSGLYSLSSVVTVPSSSLGTQTYICNVNHKPSNTKVDKKVEPKSCDKTHTCPPCPAPEAAGGPSVFLFPPKPKDTLMISRTPEVTCVVVDVSHEDPEVKFNWYVDGVEVHNAKTKPREEQYNSTYRVVSVLTVLHQDWLNGKEYKCKVSNKALGAPIEKTISKAKGQPREPQVYTLPPCREEMTKNQVSLWCLVKGFYPSDIAVEWESNGQPENNYKTTPPVLDSDGSFFLYSKLTVDKSRWQQGNVFSCSVMHEALHNHYTQKSLSLSPGK
chain 3: B1 chain with K56N, P238G
notes: BCMAxCD3, Fab(cross VH/VL)-Fc-VH (structure 12); CD3 of PR000511, BCMA VH of PR001046; IgG1 knob/hole, AAG
B3: PR003868 (bispecific antibody, human IgG1, lambda, L234A L235A)
light: B1 light
heavy: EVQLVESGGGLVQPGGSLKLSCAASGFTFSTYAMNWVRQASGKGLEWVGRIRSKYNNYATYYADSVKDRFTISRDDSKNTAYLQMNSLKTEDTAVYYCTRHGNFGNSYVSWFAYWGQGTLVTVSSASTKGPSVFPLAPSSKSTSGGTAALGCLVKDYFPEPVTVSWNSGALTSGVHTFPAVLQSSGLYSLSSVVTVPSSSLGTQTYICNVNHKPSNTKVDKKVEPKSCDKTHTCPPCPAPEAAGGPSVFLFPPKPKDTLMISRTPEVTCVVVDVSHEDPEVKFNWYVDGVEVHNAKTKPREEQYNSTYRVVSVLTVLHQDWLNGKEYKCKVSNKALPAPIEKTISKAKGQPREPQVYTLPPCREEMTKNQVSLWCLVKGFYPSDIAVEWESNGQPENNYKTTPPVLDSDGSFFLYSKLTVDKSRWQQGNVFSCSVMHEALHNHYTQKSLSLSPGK
chain: B1 chain with S30Y, Y59V, D102Q
notes: BCMAxCD3, Fab-Fc-VH (structure 11); CD3 Fab of PR003886, BCMA VH of PR004563; IgG1 knob/hole, LALA
B4: PR003869 (bispecific antibody, human IgG1, lambda, L234A L235A)
light: B1 light
heavy: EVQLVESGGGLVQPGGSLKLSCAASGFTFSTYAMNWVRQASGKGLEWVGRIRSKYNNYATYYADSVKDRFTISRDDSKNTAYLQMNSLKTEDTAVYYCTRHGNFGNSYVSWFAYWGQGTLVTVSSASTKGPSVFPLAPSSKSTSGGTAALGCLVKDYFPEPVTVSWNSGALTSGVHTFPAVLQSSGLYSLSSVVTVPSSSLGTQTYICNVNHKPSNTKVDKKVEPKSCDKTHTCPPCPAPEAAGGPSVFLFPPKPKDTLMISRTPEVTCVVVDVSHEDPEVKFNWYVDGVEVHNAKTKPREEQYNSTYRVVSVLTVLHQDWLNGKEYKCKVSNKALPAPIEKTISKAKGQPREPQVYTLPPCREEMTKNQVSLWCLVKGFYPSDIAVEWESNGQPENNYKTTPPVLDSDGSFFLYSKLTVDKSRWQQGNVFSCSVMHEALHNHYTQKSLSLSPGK
chain: B1 chain with N32S, K56R, A60S, D102Q, R104L
notes: BCMAxCD3, Fab-Fc-VH (structure 11); CD3 Fab of PR003886, BCMA VH of PR004564; IgG1 knob/hole, LALA
B5: PR003873 (bispecific antibody, human IgG1, lambda, L234A L235A)
light: B1 light
heavy: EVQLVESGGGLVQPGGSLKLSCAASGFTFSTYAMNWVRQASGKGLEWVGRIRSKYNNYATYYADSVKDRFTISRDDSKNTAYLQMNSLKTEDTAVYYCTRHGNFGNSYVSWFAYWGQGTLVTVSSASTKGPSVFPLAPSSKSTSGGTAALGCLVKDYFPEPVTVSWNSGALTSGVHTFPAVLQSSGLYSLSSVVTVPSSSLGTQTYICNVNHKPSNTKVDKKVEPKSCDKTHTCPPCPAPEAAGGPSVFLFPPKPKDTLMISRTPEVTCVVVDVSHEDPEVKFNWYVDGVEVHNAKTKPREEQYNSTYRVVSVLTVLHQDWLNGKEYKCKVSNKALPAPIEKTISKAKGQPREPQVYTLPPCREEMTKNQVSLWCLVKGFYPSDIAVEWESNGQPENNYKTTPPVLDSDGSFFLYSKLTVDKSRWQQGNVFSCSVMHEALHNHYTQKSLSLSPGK
chain: B1 chain with N32A, K56R, Y59V
notes: BCMAxCD3, Fab-Fc-VH (structure 11); CD3 Fab of PR003886, BCMA VH of PR004568; IgG1 knob/hole, LALA
B6: PR003875 (bispecific antibody, human IgG1, lambda, L234A L235A)
light: B1 light
heavy: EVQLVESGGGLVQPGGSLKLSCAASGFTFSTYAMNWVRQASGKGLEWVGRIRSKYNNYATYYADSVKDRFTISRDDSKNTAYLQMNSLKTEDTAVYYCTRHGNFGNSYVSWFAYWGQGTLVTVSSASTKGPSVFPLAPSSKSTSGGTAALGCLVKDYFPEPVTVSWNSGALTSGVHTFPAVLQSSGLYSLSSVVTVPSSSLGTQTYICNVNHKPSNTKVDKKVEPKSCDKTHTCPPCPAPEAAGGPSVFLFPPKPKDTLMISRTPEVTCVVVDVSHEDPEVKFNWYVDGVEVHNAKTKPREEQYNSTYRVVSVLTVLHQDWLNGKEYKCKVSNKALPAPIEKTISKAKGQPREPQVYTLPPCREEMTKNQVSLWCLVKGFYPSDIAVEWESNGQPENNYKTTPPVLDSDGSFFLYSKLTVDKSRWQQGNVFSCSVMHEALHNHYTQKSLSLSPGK
chain: B1 chain with N32A, K56R, D102Q
notes: BCMAxCD3, Fab-Fc-VH (structure 11); CD3 Fab of PR003886, BCMA VH of PR004570; IgG1 knob/hole, LALA
B7: PR003871 (bispecific antibody, human IgG1, lambda, L234A L235A)
light: B1 light
heavy: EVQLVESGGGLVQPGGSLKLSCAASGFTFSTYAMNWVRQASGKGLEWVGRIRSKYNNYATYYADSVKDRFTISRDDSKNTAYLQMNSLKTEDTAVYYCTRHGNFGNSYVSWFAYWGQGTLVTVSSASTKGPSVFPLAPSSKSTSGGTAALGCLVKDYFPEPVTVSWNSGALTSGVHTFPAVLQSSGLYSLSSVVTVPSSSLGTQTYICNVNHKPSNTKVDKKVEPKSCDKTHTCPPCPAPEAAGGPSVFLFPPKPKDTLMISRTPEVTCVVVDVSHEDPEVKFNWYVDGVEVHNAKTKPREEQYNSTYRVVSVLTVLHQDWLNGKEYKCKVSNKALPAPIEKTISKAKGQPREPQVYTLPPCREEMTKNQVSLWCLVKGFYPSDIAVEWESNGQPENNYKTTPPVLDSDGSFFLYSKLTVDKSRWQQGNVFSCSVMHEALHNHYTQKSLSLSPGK
chain: B1 chain with N32S, K56R, A60S
notes: BCMAxCD3, Fab-Fc-VH (structure 11); CD3 Fab of PR003886, BCMA VH of PR004566; IgG1 knob/hole, LALA
B8: PR003878 (bispecific antibody, human IgG1, lambda, L234A L235A)
light: B1 light
heavy: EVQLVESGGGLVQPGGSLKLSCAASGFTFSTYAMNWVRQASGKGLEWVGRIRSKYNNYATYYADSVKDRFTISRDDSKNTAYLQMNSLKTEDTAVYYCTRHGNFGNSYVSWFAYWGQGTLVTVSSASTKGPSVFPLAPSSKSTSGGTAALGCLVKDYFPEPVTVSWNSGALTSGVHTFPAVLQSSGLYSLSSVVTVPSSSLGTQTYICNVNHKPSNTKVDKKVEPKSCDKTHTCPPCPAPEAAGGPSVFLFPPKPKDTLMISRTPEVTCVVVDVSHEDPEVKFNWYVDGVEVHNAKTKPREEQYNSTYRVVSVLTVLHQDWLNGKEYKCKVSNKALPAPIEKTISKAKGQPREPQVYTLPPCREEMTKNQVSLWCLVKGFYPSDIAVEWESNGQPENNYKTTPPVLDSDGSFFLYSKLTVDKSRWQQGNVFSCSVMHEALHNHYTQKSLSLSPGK
chain: B1 chain with N32S
notes: BCMAxCD3, Fab-Fc-VH (structure 11); CD3 Fab of PR003886, BCMA VH of PR004573; IgG1 knob/hole, LALA
B9: PR003877 (bispecific antibody, human IgG1, lambda, L234A L235A)
light: B1 light
heavy: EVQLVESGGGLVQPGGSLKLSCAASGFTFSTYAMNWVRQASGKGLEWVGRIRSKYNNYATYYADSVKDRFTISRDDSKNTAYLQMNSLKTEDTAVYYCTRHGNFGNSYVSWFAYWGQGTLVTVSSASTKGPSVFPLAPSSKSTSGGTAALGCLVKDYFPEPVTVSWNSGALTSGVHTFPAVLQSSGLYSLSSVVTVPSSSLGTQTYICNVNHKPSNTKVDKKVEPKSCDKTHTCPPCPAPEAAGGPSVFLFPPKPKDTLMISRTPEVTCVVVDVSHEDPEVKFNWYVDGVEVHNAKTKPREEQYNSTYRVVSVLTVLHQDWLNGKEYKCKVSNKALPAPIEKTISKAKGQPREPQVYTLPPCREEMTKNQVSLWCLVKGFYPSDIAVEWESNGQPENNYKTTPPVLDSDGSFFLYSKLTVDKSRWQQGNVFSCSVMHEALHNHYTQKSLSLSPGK
chain: B1 chain with N32S, Y59V
notes: BCMAxCD3, Fab-Fc-VH (structure 11); CD3 Fab of PR003886, BCMA VH of PR004572; IgG1 knob/hole, LALA
B10: PR003881 (bispecific antibody, human IgG1, lambda, L234A L235A)
light: B1 light
heavy: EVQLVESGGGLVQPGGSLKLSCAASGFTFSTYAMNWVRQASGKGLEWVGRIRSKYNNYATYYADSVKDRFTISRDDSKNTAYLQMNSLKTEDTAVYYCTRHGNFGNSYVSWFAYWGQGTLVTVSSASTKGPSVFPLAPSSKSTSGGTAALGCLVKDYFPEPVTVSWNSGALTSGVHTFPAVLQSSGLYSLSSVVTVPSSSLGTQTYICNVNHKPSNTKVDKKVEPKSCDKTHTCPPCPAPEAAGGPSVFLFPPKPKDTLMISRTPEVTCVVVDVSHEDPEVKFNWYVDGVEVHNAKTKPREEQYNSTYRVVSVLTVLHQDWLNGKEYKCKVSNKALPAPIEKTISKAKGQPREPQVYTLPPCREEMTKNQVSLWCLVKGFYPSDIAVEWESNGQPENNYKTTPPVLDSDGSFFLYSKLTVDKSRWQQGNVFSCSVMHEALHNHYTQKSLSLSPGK
chain: B1 chain with N32S, K56N, D102Q, R104L
notes: BCMAxCD3, Fab-Fc-VH (structure 11); CD3 Fab of PR003886, BCMA VH of PR004561; IgG1 knob/hole, LALA
B11: PR001991 (bispecific antibody, human IgG1, kappa, L234A L235A)
chain 1: B2 chain 1
chain 2: B2 chain 2
chain 3: EVQLLESGGGLVQPGGSLRLSCAASGFTFSSYAMIWVRQAPGKGLEWVSGISESGGSTYYADSVKGRFTISRDNSKNTLYLQMNSLRAEDTAVYFCVKDLDDILTGYYKDYWGQGTLVTVSSASEPKSSDKTHTCPPCPAPEAAGGPSVFLFPPKPKDTLMISRTPEVTCVVVDVSHEDPEVKFNWYVDGVEVHNAKTKPREEQYNSTYRVVSVLTVLHQDWLNGKEYKCKVSNKALGAPIEKTISKAKGQPREPQVCTLPPSREEMTKNQVSLSCAVKGFYPSDIAVEWESNGQPENNYKTTPPVLDSDGSFFLVSKLTVDKSRWQQGNVFSCSVMHEALHNHYTQKSLSLSPGK
notes: CD3 of PR000511, BCMA VH of PR000940; IgG1 knob/hole, AAG
B12: PR001992 (bispecific antibody, human IgG1, kappa, L234A L235A)
chain 1: B2 chain 1
chain 2: B2 chain 2
chain 3: EVQLVETGGGLIQPGGSLRLSCAASGFPVSSNYMSWVRQAPGKGLEWVSVIFSGGRTYYADSVKGRFTISRDNSKNTLYLQMNSLRAEDTAVYYCARRNWIDGRDAFDIWGQGTMVTVSSASEPKSSDKTHTCPPCPAPEAAGGPSVFLFPPKPKDTLMISRTPEVTCVVVDVSHEDPEVKFNWYVDGVEVHNAKTKPREEQYNSTYRVVSVLTVLHQDWLNGKEYKCKVSNKALGAPIEKTISKAKGQPREPQVCTLPPSREEMTKNQVSLSCAVKGFYPSDIAVEWESNGQPENNYKTTPPVLDSDGSFFLVSKLTVDKSRWQQGNVFSCSVMHEALHNHYTQKSLSLSPGK
notes: BCMAxCD3, Fab(cross VH/VL)-Fc-VH (structure 12); CD3 of PR000511, BCMA VH of PR000943; IgG1 knob/hole, AAG
B13: PR001995 (bispecific antibody, IgG1)
chain 1: EVQLLESGGGLVQPGGSLRLSCAASGFTFNTYAMNWVRQAPGKGLEWVSRIRSKYNNYATYYADSVKDRFTISRDDSKSTLYLQMNSLRAEDTAVYYCVRHGNFGNSYVSWFAYWGQGTLVTVSSASTKGPSVFPLAPSSKSTSGGTAALGCLVKDYFPEPVTVSWNSGALTSGVHTFPAVLQSSGLYSLSSVVTVPSSSLGTQTYICNVNHKPSNTKVDKKVEPKSC
chain 2: QAVVTQEPSLTVSPGGTVTLTCRSSTGAVTTSNYANWVQQKPGQAPRGLIGGTNKRAPWTPARFSGSLLGDKAALTLLGAQPEDEAEYFCALWYSNLWVFGGGTKLTVLGQPKAAPSVTLFPPSSEELQANKATLVCLISDFYPGAVTVAWKADSSPVKAGVETTTPSKQSNNKYAASSYLSLTPEQWKSHRSYSCQVTHEGSTVEKTVAPTECSDKTHTCPPCPAPEAAGGPSVFLFPPKPKDTLMISRTPEVTCVVVDVSHEDPEVKFNWYVDGVEVHNAKTKPREEQYNSTYRVVSVLTVLHQDWLNGKEYKCKVSNKALGAPIEKTISKAKGQPREPQVYTLPPCREEMTKNQVSLWCLVKGFYPSDIAVEWESNGQPENNYKTTPPVLDSDGSFFLYSKLTVDKSRWQQGNVFSCSVMHEALHNHYTQKSLSLSPGK
chain 3: B11 chain 3
notes: as for B11
B14: PR001993 (bispecific antibody, human IgG1, kappa, L234A L235A)
chain 1: B2 chain 1
chain 2: B2 chain 2
chain 3: B12 chain 3 with P28T, S35T, R56S, N99I, W100A, I101V, D102A, R104H, A106V
notes: BCMAxCD3, Fab(cross VH/VL)-Fc-VH (structure 12); CD3 of PR000511, BCMA VH of PR001035; IgG1 knob/hole, AAG

biological target: T1, human BCMA; test: FACS on NCI-H929 cells

Row | Binder | EC50 [nM] | Maximum MFI
1 | B1 | 4.6 | 8590
2 | B2 |  | 3430
3 | B3 | 7.3 | 17400
4 | B4 | 1.7 | 12500
5 | B5 | 1.3 | 10200
6 | B6 | 1.2 | 9840
7 | B7 | 2 | 10600
8 | B8 | 1.5 | 9240
9 | B9 | 1.7 | 11100
10 | B10 | 2.6 | 10300
11 | B11 |  | 1980
12 | B12 |  | 3210
13 | B13 |  | 2590
14 | B14 |  | 1290
